Reference: the RNAGym collection of RNA variant scans (doi:10.7554/elife.80360)

B1: Twister Ribozyme (parent)
chain: AACACUGCCAAUGCCGGUCCCAAGCCCGGAUAAAAGUGGAGGGGGCGG

Variants of: B1
Test: self-cleavage, relative activity (ratio to wild type); higher = more cleavage; co-transcriptional

Going from AACCCUGCCAAUGCCGGUCCCAAGCCCGGAUAAUAGUGGAGGGGGCGG to AACCCUGCCAAUGCCGGUCCCAAGCCCGGAUAAGAGUGGAGGGGGCGG, the self-cleavage rises from 0.0292 to 0.0947.

Compared with AACCCUGCCAAUGCCGGUCCCGAGCCCGGAUAAAAGUGGAGGGGGCGG, AAUACGGCCAAUGCCGGUCCCAAGCCCGGAUAAAAGUGGAGGGGGCGG is higher in self-cleavage: 0.0686 for the first, 0.106 for the second.

First: AACCCUGCCAAUGCCGGUCCCAAGCCCGGAUAAAAGUGGGGGGGGCGG
Second: AACCCUGCCAAUGCCGGUCCCAAGCCCGGAUAAAAGUGGCGGGGGCGG
The self-cleavage of the first is higher: 0.0825 for the first, 0.0698 for the second.

First: AACCCUGCCAAUGCCGGUCCCAAGCCCGGAUAAAAGUGGUGGGGGCGG
Second: AACCCUGCCAAUGCCGGUCCCAAGCCCCGAUAAAAGUGGAGGGGGCGG
The self-cleavage of the first is lower: 0.0853 for the first, 0.0895 for the second.

Going from AACCCUGCCAAUGCCGGUCCCAAGCCCUGAUAAAAGUGGAGGGGGCGG to AACCCUGCCAAUGCCGGUCCCAAGCCCGGAUAAAGGUGGAGGGGGCGG, the self-cleavage rises from 0.104 to 0.451.

First: AAUACUGCCAAUGCCGGUCCCAAGCCCGGAUAAAAGUGGAGGGGGCGU
Second: AACCCUGCCAAUGCCGGUCCCAAGCCCGGAUCAAAGUGGAGGGGGCGG
The self-cleavage of the first is higher: 0.562 for the first, 0.101 for the second.

First: AACCGUGCCAAUGCCGGUCCCAAGCCCGGAUAAAAGUGGAGGGGGCGG
Second: AACCUUGCCAAUGCCGGUCCCAAGCCCGGAUAAAAGUGGAGGGGGCGG
The self-cleavage of the first is lower: 0.0446 for the first, 0.701 for the second.

First: AACCCUGCCAAUGCCGGUCACAAGCCCGGAUAAAAGUGGAGGGGGCGG
Second: AACCCUGCCAAUGCCGGUCGCAAGCCCGGAUAAAAGUGGAGGGGGCGG
The self-cleavage of the first is higher: 0.0653 for the first, 0.0372 for the second.

Compared with AACCCUGCCCAUGCCGGUCCCAAGCCCGGAUAAAAGUGGAGGGGGCGG, AACCCUGCCGAUGCCGGUCCCAAGCCCGGAUAAAAGUGGAGGGGGCGG is higher in self-cleavage: 0.152 for the first, 0.334 for the second.

Going from AAUACUGCCAAUGCCGGUCCCAAGCCCGGAGAAAAGUGGAGGGGGCGG to AAUACUGCCAAUGCCGGUCCCAAGCCCGGACAAAAGUGGAGGGGGCGG, the self-cleavage falls from 0.445 to 0.391.

First: AAUACUGCCAAUGCCGGACCCAAGCCCGGAUAAAAGUGGAGGGGGCGG
Second: AAUACUGCCAAUGCCGGGCCCAAGCCCGGAUAAAAGUGGAGGGGGCGG
The self-cleavage of the first is higher: 0.158 for the first, 0.0621 for the second.

Going from AAUACUGCCAAUGCCGGCCCCAAGCCCGGAUAAAAGUGGAGGGGGCGG to AACCCUGCCAAUGCGGGUCCCAAGCCCGGAUAAAAGUGGAGGGGGCGG, the self-cleavage falls from 0.215 to 0.0431.

Going from AAUACUGCCAAUGCCGGUCCCAAGCCCGGAUAAAAGUGGAGGGGGCCG to AACCCUGCGAAUGCCGGUCCCAAGCCCGGAUAAAAGUGGAGGGGGCGG, the self-cleavage falls from 0.233 to 0.107.

Compared with AACCCUGCUAAUGCCGGUCCCAAGCCCGGAUAAAAGUGGAGGGGGCGG, AACCCUGCCAAUGCCGGUCCCAAGCCCGGAUAAAAGUGGAGGGGGUGG is higher in self-cleavage: 0.0772 for the first, 0.163 for the second.

First: AACCCUGCCAAUGCCGGUCCCAAGCCCGGCUAAAAGUGGAGGGGGCGG
Second: AACCCUGCCAAUGCCGGUCCCAAGCCCGGAUAGAAGUGGAGGGGGCGG
The self-cleavage of the first is lower: 0.0841 for the first, 0.146 for the second.

First: AACCCUGCCAAUGCCGGUCCCAAGCCCGGAUAUAAGUGGAGGGGGCGG
Second: AACCCUGCCAAUGCCGGUCCCAAGCCCGGAUACAAGUGGAGGGGGCGG
The self-cleavage of the first is higher: 0.152 for the first, 0.108 for the second.

Going from AAUACUGCCAAUGCCGGUCCCAAGCCCGGAUAAAAGCGGAGGGGGCGG to AAUACUGCCAAUGCCGGUCCCAAGCCCGGAUAAAAGGGGAGGGGGCGG, the self-cleavage rises from 0.172 to 0.406.

Compared with AACCCUGCCAAUGCCGGUCCCAAGCACGGAUAAAAGUGGAGGGGGCGG, AACCCUUCCAAUGCCGGUCCCAAGCCCGGAUAAAAGUGGAGGGGGCGG is higher in self-cleavage: 0.0425 for the first, 0.0643 for the second.

First: AACCCUACCAAUGCCGGUCCCAAGCCCGGAUAAAAGUGGAGGGGGCGG
Second: AACCCUGCCAAUGCCGGUCCCAAGGCCGGAUAAAAGUGGAGGGGGCGG
The self-cleavage of the first is higher: 0.0506 for the first, 0.0395 for the second.

Compared with AACCCUGCCAAUGCCGGUCCCAAGACCGGAUAAAAGUGGAGGGGGCGG, AACCCUGCCAAUGCCGGUCCCAAGCCUGGAUAAAAGUGGAGGGGGCGG is higher in self-cleavage: 0.0458 for the first, 0.112 for the second.

First: AACCCUGCCAAUGCCGGUCCCAAGCCAGGAUAAAAGUGGAGGGGGCGG
Second: AACCCUGCCAAUGCCGGUCCCAUGCCCGGAUAAAAGUGGAGGGGGCGG
The self-cleavage of the first is higher: 0.0944 for the first, 0.0688 for the second.

First: AACCCUGCCAAUGCCGGUCCCACGCCCGGAUAAAAGUGGAGGGGGCGG
Second: AACCCUGCCAAUGCCGGUCCAAAGCCCGGAUAAAAGUGGAGGGGGCGG
The self-cleavage of the first is lower: 0.0177 for the first, 0.105 for the second.

First: AACCCUGCCAAUGCCGGUCCUAAGCCCGGAUAAAAGUGGAGGGGGCGG
Second: AACCCUGCCAAUGCCGGUCCGAAGCCCGGAUAAAAGUGGAGGGGGCGG
The self-cleavage of the first is higher: 0.0583 for the first, 0.0577 for the second.

First: AACCCUGCCAAUGCCGCUCCCAAGCCCGGAUAAAAGUGGAGGGGGCGG
Second: AACCCUGCCAUUGCCGGUCCCAAGCCCGGAUAAAAGUGGAGGGGGCGG
The self-cleavage of the first is lower: 0.0696 for the first, 0.16 for the second.

Going from AACCCUGCCACUGCCGGUCCCAAGCCCGGAUAAAAGUGGAGGGGGCGG to AACCCUGCCAAUGCCAGUCCCAAGCCCGGAUAAAAGUGGAGGGGGCGG, the self-cleavage rises from 0.0104 to 0.0955.

Going from AACCCUGUCAAUGCCGGUCCCAAGCCCGGAUAAAAGUGGAGGGGGCGG to AACCCUGACAAUGCCGGUCCCAAGCCCGGAUAAAAGUGGAGGGGGCGG, the self-cleavage rises from 0.108 to 0.119.

Going from AACCCUGCCAAUGUCGGUCCCAAGCCCGGAUAAAAGUGGAGGGGGCGG to AACCCUGCCAAUGACGGUCCCAAGCCCGGAUAAAAGUGGAGGGGGCGG, the self-cleavage rises from 0.257 to 0.33.
